Results on 78 sequences are retold here after the supplement of paper PMC10724198.

± gives the standard deviation of the averaged measurements.
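Note: PSI is a weighted mean of sequencing reads over stability bins, variants kept only with over 10 reads, mCherry proximal and sfGFP distal, peptide attached via GGGS linker.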

The data set relates to Saccharomyces cerevisiae. As to the kind of experiment: protein stability index of tFT-peptide fusion (C-terminal peptide) (PSI (0-1 scale)); higher = more stable (slower turnover). The conditions noted are these: genetic background: wild type; temperature: 30 C. As for the experimental part:
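Multiplexed protein stability (MPS) profiling in S. cerevisiae. Random 12-aa peptides (tFT-X12 library) are fused to the C-terminus of a sfGFP-mCherry tandem fluorescent timer, after mCherry and a GGGS linker. Cells are FACS-sorted into 8 mCherry/sfGFP bins and deep-sequenced. The protein stability index (PSI) is the read-weighted bin average, scaled from 0 (unstable) to 1 (stable). Only peptides with >10 reads are reported; cells were grown at 30 °C in SC-His with glucose.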
The sequence GGWGRKCGGSGG came in with a protein stability index of 0.711 ± 0.018. Next, GGWGWEGRGGSG: 0.677 ± 0.014; GGWPLSPSFGWG: 0.571. Next, GGWWSCAWGVRG: 0.627 ± 0.065. Under GHEKAGPSIGFL stands 0.644 ± 0.027; under GHFWVFGIPFFR, 0.6547 ± 0.0017.

The sequence GHVCNSIVPFRV came in with a protein stability index of 0.624 ± 0.022. Under GHVPIWPFLSLS stands 0.6664 ± 0.0042. Under GIASKCFWFVCG stands 0.645 ± 0.018. In turn, GICDAVLFTMLV yielded a protein stability index of 0.682 ± 0.068. Under GIKQEMKYQVGK stands 0.665 ± 0.07; under GILRGSKKVDPP, 0.622 ± 0.029. Under GILYFPAGHHAG stands 0.627 ± 0.035. Under GIPWSVLLSSYW stands 0.713 ± 0.033; under GIQAGGGGGKGG, 0.676 ± 0.022. Regarding GIQIRIDNQKKN, the protein stability index was determined as 0.67 ± 0.025. Under GIVFVFGGGLAL stands 0.702 ± 0.078. GIVVTCLRSRWD displayed a protein stability index of 0.647 ± 0.013.

The sequence GKADRRKSEHVR yielded a protein stability index of 0.733 ± 0.047.

With GKCFSFSFNCLH, the protein stability index was 0.521 ± 0.023. The sequence GKFVEVVRFWSV came in with a protein stability index of 0.721 ± 0.074. GKGREGVGEVGK showed a protein stability index of 0.6753 ± 0.0043. Next, GKGRIWTGRKGC: 0.68 ± 0.098; GKGYVFRTLSHL: 0.732 ± 0.082. GKIGAIRVVGWA: the protein stability index stood at 0.662 ± 0.02. Next, GKLLPCVRGRGL: 0.665 ± 0.024; GKNGKNMDKDNK: 0.676 ± 0.019; GKNRKKEEHAKR: 0.702 ± 0.12. Next, GKRGKKVKKKSK: 0.621 ± 0.016. Under GKRKEAVLRMMI stands 0.6213 ± 0.0017; under GKSLIKRYANKI, 0.7436 ± 0.0019; under GKSREKEKESRE, 0.658 ± 0.032. For GKTNKALDRISI, the protein stability index is 0.679 ± 0.038. Next, GKYKKGNSIAIE: 0.598 ± 0.012; GLAPYRPVITFS: 0.675 ± 0.002; GLCGVVFGGRGE: 0.657 ± 0.064.

The sequence GLCPCGDAISTR registered a protein stability index of 0.682 ± 0.053. On to GLEGSVRRVRGS, for which the protein stability index is 0.701 ± 0.011.

The sequence GLESVGRVSLRG gave a protein stability index of 0.657 ± 0.0094. Under GLFFISLFFPFL stands 0.575 ± 0.0096. Under GLFVSLRGLSLS stands 0.71 ± 0.044; under GLGRRRGVGGVR, 0.709 ± 0.0027.

Consider GLGVCGTGIGGV, for which the protein stability index was 0.656 ± 0.014. Under GLIVGLLGVSGF stands 0.591 ± 0.0062; under GLKTLQTCRIIR, 0.691 ± 0.054. Next, GLLENLKKRSRG: 0.691 ± 0.07; GLLRGHVFVGRG: 0.692 ± 0.029; GLLSLPPRLPFL: 0.672 ± 0.073. Next, GLLTFPPNRSGG: 0.67 ± 0.05. Sequence GLMRDKEMRMPK yielded a protein stability index of 0.68 ± 0.036. Next, GLNVLVWALLSQ: 0.548 ± 0.032. Next, GLPCLSPPLAPS: 0.683 ± 0.034; GLPRCMDWSIRR: 0.6764 ± 0.00099. As for GLPTPSNVPPFG, the protein stability index was determined as 0.703 ± 0.01.

In the case of GLRQVPGDLAEG, the protein stability index stood at 0.699 ± 0.039.

Sequence GLSGVVGSRCHC showed a protein stability index of 0.713 ± 0.02. Under GLSLFPVTFFLR stands 0.585 ± 0.02; under GLSPDFRFMGVR, 0.667 ± 0.029. Under GLSSLVLRFFLP stands 0.663 ± 0.025; under GLSTPPSPALLR, 0.748 ± 0.013; under GLTWFRQARAAL, 0.718 ± 0.039. For GLVDARRRWCFS, the protein stability index is 0.62 ± 0.0073. Next, GLVHGSWGCQCD: 0.714 ± 0.015; GLVRGGGGTVGG: 0.81 ± 0.22; GLVSSDVGFRGY: 0.73 ± 0.019. GLYHGFCLSGCL had a protein stability index of 0.678 ± 0.04.

Consider GMGLWCLSGLFP, for which the protein stability index was found to be 0.7131 ± 0.0067. With GMKDKSVRTIKK, the protein stability index came out at 0.721 ± 0.0035. Under GMLGVGGYGGLW stands 0.717 ± 0.078; under GNAKKRKNKEKK, 0.651 ± 0.09. Under GNCVESCMWQRE stands 0.704 ± 0.05.

GNKAPHTRTIGG: the protein stability index is 0.706 ± 0.028. Under GPALCPVWATYG stands 0.591 ± 0.0086. GPGGGGGLWVRV displayed a protein stability index of 0.617 ± 0.016. Next, GPGTSSSGLVFT: 0.692 ± 0.029; GPKTFIRSTKEI: 0.697 ± 0.03; GPPLSPPLLLLL: 0.681 ± 0.046. Next, GPPPLPSPPSHP: 0.753 ± 0.1.
